We go through one molecule from patent US20130101549A1 (Biogen, published 2013).

For experiment [1], the target named is T1, human HER2-Fc (human, UniProt P04626 23-652).
T1 construct: Bought from R&D Systems: homodimeric fusion of the HER2 extracellular domain and human IgG1 Fc; also called human ErbB2-Fc; rhErbB2-Fc; not shown: Fc fragment of human IgG1
Description: ELISA on coated HER2-Fc. On the procedure: (§1) Human and murine ErbB2-Fc were obtained from R&D Systems. Wells of 96-well plates were coated with 2 ug/ml or 0.2 ug/ml of human or murine HER2-Fc by incubation overnight at 4-8° C. with either of these six proteins (80 ul/well of a 0.2 or 2 ug/ml solution in PBS). Wells were emptied, filled completely with a solution of PBS with 1% BSA (blocking buffer) and incubated at room temperature for 1 hour. Wells were emptied, washed twice PBS containing 0.05% Tween 20 (PBST) and filled with the samples (80 ul/well of 3× dilution series of the standard and supernatants in blocking buffer) prepared in another 96-well plate. After a 2-hour incubation at room temperature, the wells were emptied, washed three times with PBST and filled with a solution of HRP-conjugated goat pAbs anti-human kappa chain (80 ul/well of a 2000-fold dilution in blocking buffer). After 1-hour incubation, the wells were emptied and filled with a solution of HRP substrate prepared freshly. The color was left to develop for 3 minutes and was stopped by addition of an equal volume of 1N H₂SO₄. Absorbance was measured at 450 nm using a Plate Reader (SpectraMax, Molecular Devices). The data was processed and graphs were created using SoftMax Pro software.
In general terms: In an ELISA, binding on a coated surface is turned into a signal by an enzyme label.

In experiment [2] the target is T2, human HVEM-Ig (human, UniProt Q92956 39-202).
T2 construct: Expressed and purified in house; also called HVEM-Fc; Herpes virus entry mediator-Ig
T2 sequence (looked up): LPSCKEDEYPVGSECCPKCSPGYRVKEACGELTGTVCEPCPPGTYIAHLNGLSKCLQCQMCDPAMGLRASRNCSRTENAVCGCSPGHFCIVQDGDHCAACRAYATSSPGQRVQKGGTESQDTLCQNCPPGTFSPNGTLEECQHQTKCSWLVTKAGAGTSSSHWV
The experiment can be described thus: ELISA on coated HVEM-Ig. How it is done:
as §1
(§2) Human and murine HVEM-Ig were expressed and purified in house.

Experiment [3] has as its target T3, human HER2/ErbB2 on cells (human, UniProt P04626 23-1255).
T3 construct: whole, on cells; also called hHER2/ErbB2; wild type HER2/ErbB
Description: FACS on HER2-expressing cells.

Experiment [4] concerns the target T2, human HVEM-Ig. Description: FACS (HVEM column of Table 2; format not told there).
For another experiment, the target named is T4, IGFR-Ig (UniProt P08069 31-932).
T4 construct: not shown: Ig part not specified
Description: ELISA on IGFR-Ig, dilutions of medium of transfected CHO cells; the linker version of the control fusion is not named on the sheet.

For experiment [5], the target named is T1, human HER2-Fc. Description: ELISA on coated huHER2-Fc, HRP anti-human kappa; the number is C of the printed 4-P fit (A -0.074, B 0.86, D 1.013, R^2 0.999); x axis: Fab equivalent concentration. How it is done: as §1, with “Wells” for “Human and murine ErbB2-Fc were obtained from R&D Systems. Wells”, “coated” for “coated with 2 ug/ml or 0.2 ug/ml of human or murine HER2-Fc”, “goat antibodies against human kappa chain” for “either of these six proteins”, “5” for “0.2 or 2”
(§3) Human and murine HER2-Fc (homodimeric fusion proteins consisting of the extracellular domain of HER2 and the Fc fragment of human IgG1) were obtained from R&D Systems. […]

Another experiment addresses T5, murine HER2-Fc (mouse; human, UniProt P70424 23-653).
T5 construct: extracellular domain; Bought from R&D Systems; also called murine ErbB2-Fc; not shown: Fc fragment of human IgG1
The experiment can be described thus: ELISA on coated muHER2-Fc, HRP anti-human kappa; the number is C of the printed 4-P fit (A -0.025, B 0.883, D 0.935, R^2 0.999); x axis: Fab equivalent concentration. On the procedure:
as §1, with “Wells” for “Human and murine ErbB2-Fc were obtained from R&D Systems. Wells”, “coated” for “coated with 2 ug/ml or 0.2 ug/ml of human or murine HER2-Fc”, “goat antibodies against human kappa chain” for “either of these six proteins”, “5” for “0.2 or 2”
as §3

Another experiment addresses T6, human LTβR-Ig (human, UniProt P36941 31-227).
T6 construct: Expressed and purified in house; also called hLTbR-Ig; human LTBR-Ig
The experiment can be described thus: ELISA, huLTBR-Ig coated at 0.2 ug/ml, HRP goat anti-human kappa; the number is C of the printed 4-P fit (A 0.057, B 0.9, D 1.548, R^2 0.998); Fab-Light is BIIB71F10-132 by paragraph 502. On the procedure:
as §1
(§4) Human and murine LTBR-Ig were expressed and purified in house.

Experiment [6] deals with T2, human HVEM-Ig. Description: ELISA, huHVEM-Ig coated at 2 ug/ml, HRP goat anti-human kappa; the number is C of the printed 4-P fit (A 0.064, B 0.959, D 1.517, R^2 0.999); Fab-Light is BIIB71F10-132 by paragraph 503. How it is done: as §1, §2
In another experiment the target is T7, murine LTβR-Ig (mouse, UniProt P50284 31-223).
T7 construct: Expressed and purified in house; also called mLTbR; murine LTBR-Ig
Description: ELISA, muLTBR-Ig coated at 0.2 ug/ml, HRP goat anti-human kappa; the number is C of the printed 4-P fit (A 0.064, B 0.872, D 1.453, R^2 0.999); Fab-Light is BIIB71F10-132 by paragraph 502. How it is done:
as §1, §4

T6 sequence (P36941 31-227): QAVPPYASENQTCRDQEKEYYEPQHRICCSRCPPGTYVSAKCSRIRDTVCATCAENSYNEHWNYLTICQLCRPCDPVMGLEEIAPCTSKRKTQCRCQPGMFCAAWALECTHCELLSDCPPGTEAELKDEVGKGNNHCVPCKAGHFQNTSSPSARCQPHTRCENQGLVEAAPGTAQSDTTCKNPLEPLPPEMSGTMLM
T5 sequence (P70424 23-653): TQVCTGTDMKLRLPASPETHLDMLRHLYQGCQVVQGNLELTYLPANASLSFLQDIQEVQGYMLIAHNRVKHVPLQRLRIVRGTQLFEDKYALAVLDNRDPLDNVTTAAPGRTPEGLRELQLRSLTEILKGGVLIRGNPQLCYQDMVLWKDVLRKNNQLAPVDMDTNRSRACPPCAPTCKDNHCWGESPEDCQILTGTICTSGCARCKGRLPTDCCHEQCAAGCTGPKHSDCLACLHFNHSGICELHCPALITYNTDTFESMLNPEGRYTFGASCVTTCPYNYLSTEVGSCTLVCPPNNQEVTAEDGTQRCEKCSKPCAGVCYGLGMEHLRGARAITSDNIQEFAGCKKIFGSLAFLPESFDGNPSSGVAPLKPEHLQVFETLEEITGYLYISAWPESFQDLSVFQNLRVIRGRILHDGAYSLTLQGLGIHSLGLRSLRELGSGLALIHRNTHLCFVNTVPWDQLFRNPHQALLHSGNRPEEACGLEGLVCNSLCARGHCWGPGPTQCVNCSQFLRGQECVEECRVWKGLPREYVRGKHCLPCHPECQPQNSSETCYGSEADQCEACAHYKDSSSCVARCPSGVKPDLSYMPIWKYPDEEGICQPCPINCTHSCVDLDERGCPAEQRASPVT
T7 sequence (P50284 31-223): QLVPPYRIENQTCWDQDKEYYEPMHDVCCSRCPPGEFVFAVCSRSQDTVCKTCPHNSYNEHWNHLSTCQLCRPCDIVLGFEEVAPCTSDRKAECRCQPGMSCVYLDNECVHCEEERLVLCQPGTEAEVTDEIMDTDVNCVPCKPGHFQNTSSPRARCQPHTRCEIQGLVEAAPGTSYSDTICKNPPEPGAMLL

B1: 71F10 Fab-hLIGHT fusion with the (G4S)4 linker (BIIB71F10-132) (other)
heavy: EVQLLESGGGLVQPGGSLRLSCAASGFTFSSYGMVWVRQAPGKGLEWVSSISSSGGLTWYADSVKGRFTISRDNSKNTLYLQMNSLRAEDTAVYYCASPPGIAVARDYWGQGTLVTVSSASTKGPSVFPLAPSSKSTSGGTAALGCLVKDYFPEPVTVSWNSGALTSGVHTFPAVLQSSGLYSLSSVVTVPSSSLGTQTYICNVNHKPSNTKVDKKVEPKSCDKGGGGSGGGGSGGGGSGGGGSNPAAHLTGANSSLTGSGGPLLWETQLGLAFLRGLSYHDGALVVTKAGYYYIYSKVQLGGVGCPLGLASTITHGLYKRTPRYPEELELLVSQQSPCGRATSSSRVWWDSSFLGGVVHLEAGEEVVVRVLDERLVRLRDGTRSYFGAFMV
light: DIQMTQSPSSLSASVGDRVTITCRASQGISNYLAWYQQKPGKVPKLLIYAASTLQSGVPSRFSGSGSGTDFTLTISSLQPEDVATYYCQKYNSALLTFGGGTKVEIKRTVAAPSVFIFPPSDEQLKSGTASVVCLLNNFYPREAKVQWKVDNALQSGNSQESVTEQDSKDSTYSLSSTLTLSKADYEKHKVYACEVTHQGLSSPVTKSFNRGEC
notes: Trimer of Fab-LIGHT units; also called 71F10 Fab-(G4S)4-LIGHT
One may read the EC50 as the concentration that produces a half-maximal response. Consider B1, for which the EC50 with human HER2-Fc [1] is 50 pM; in the experiment with human HVEM-Ig [2], 10 pM; in [3], 500 pM; with human HVEM-Ig [4] it was 500 pM; with human HER2-Fc [5], 7 ng/mL; with murine HER2-Fc, 12.2 ng/mL. The 50% effective concentration (EC50) in the experiment with human LTβR-Ig was 1.91 ng/mL; with human HVEM-Ig [6] it was 2.45 ng/mL; in the experiment with murine LTβR-Ig, 58.8 ng/mL. Besides, in the experiment with IGFR-Ig, the binding result is given as “no binding (tested: dilution 1.00 (undiluted medium))”.
